The experiment deals with mouse recombinant His-calmodulin (mouse), P0DP26.

Results on one molecule are retold here after patent publication EP4036575A1.

B1: Mastoparan, P01514 1-14 (peptide)
peptide: INLKALAALAKKIL
modifications: not checked
Turning to B1, the dissociation constant Kd was found to be 1.2 nM.
